Measurements as given in patent US11235004B2, “Lymphocyte cell lines and uses thereof” (Innovative Cellular Therapeutics Holdings, Ltd., priority 2017, dated 2022).

Columns and labels:
[1] = test system: transduced T cells (ef1a-TK-IRES-rtTA-TRE-hTERT) and non-transduced T cells; test: Ganciclovir (TK suicide switch) cell growth test; type: cell-based, human; details: in the presence of GCV
Procedure: Experimental cells: CD8+CZY-1 SDS-T and NT cell; TK usage: Adult body concentration of 71.45 ng/ml/5000 ng/kg every 24 h injection. In vitro experimental concentration gradients: 357.2 ng/ml, 142.9 ng/ml, 71.45 ng/ml, 35.725 ng/ml, 14.28 ng/ml, 3.6 ng/ml. […] The starting cells were cultured in 200 w cell density of 50 w/ml.
In group three, transduced cells (ef1a-TK-IRES-rtTA-TRE-hTERT) were cultured using media containing Dox (2 μg/ml) and CD19 ECD (1 mg/250,000 CAR T cells). On day 90, various concentrations of GCV was added to the transduced cells. […] DTT cells represent transduced T cells and grew poorly in the presence of GCV.

[2] = test system: CAR T-TSHR cells; test: Culture of CAR T-TSHR cells with soluble TSHR ECD; type: cell-based, human
Excerpt: Primary T cells were transduced with lentiviral vectors encoding a TSHR CAR to obtain modified T cells including CAR T cells expressing anti-TSHR (thereafter “CAR T-TSHR cells”). The modified T cells were frozen and stored for 30 days. Techniques related to freezing T cells and thawing frozen T cells may be found in Levine et al., Molecular Therapy—Methods & Clinical Development, Molecular Therapy, Vol 4, Mar. 17, 2017.
The modified Tcells were thawed and divided into two groups and cultured, respectively. CAR T-TSHR cells in Group 1 were cultured with anti-CD3 & CD28 beads and IL2 for 10 days, while CAR T-TSHR cells in Group 2 were cultured with various concentrations of soluble TSHR (e.g., extracellular domain of TSHR, SEQ ID: 34), anti-CD3 & CD28 beads and IL2. For Group 2, 500,000 CAR T-TSHR cells were cultured with 10, 125, 500 ng/ml of soluble TSHR ECD for 14 days. The T cell population was observed by flow cytometry (FIGS. 8 and 9), and cellular morphology of the T cell population was observed under microscopes (FIG. 10).

[3] = test system: CAR T19 cells; test: Culture of CAR T19 cells with or without soluble CD19 ECD; type: cell-based, human
Procedure: The primary T cells were transduced with lentiviral vectors encoding a CD19 CAR to obtain modified T cells including CAR T cells expressing anti-CD19 (thereafter “CAR T19 cells”) on day 1. The modified T cells were divided into two groups and cultured, respectively. CAR T19 cells in Group 1 were cultured with anti-CD3 & CD28 beads and IL2, while CAR T19 cells in Group 2 were cultured with soluble CD19 (e.g., extracellular domain (ECD) of CD19, SEQ ID: 41), anti-CD3 & CD28 beads and IL2. For Group 2, 500,000 CAR T19 cells were cultured with 2 micrograms of soluble CD19 at the starting point, and 4 micrograms of soluble CD19 were used after the CAR T19 cells were grown. The numbers of cells were measured, and ratios between CAR+ cells and the modified T cell population were observed by flow cytometry. The number of CAR copies in the cell population was measured.
T cell phenotypes were further observed. […] Memory cell marker CD62L on CAR+ and CAR-cells were analyzed to determine phenotypes of cultured T cell population.
CAR T19 cells were cultured with CD19 for over 15 days and then were divided into Group 3 and Group 4. CAR T19 cells in Group 3 were continuously cultured with soluble CD19, while CAR T19 cells in Group 4 were cultured without CD19.

[4] = test system: K562-CD19; test: IFN-gamma release of CAR T19 cells co-cultured with K562-CD19; type: cell-based; details: after 24 hours; Group 2 (pre-cultured with CD19) vs Group 1; E:T 1:1 or 1:10
Procedure: CAR T19 cells of Group 1 and Group 2 were cultured for about one to three weeks using the protocols described above, respectively. CAR T19 cells were then washed and placed into cultures without CD19. These CAR T19 cells were co-cultured with K562-CD19 (E:T 1:1 or 1:10). After 24 hours, 48 hours, and 72 hours, supernatant of the cultures were collected, and IFN-gamma released by the cells were measured to determine functions of CAR T19 cells.

[5] = test system: CAR T cells; test: Long-term culture of CAR T cells (groups A-D) with CD19 antigen, flow cytometry; type: cell-based, human
Excerpt: Various CARs (A, B, C, and D) were constructed by linking a signal peptide (SEQ ID NO: 38), antigen-specific single-chain variable fragment (scFv) (SEQ ID NO: 55 or 21), hinge domain (SEQ ID NOs: 68, 69, 70, or 71), a transmembrane domain (SEQ ID NO: 72, 73, 74, or 75), one or more co-stimulation domains (SEQ ID NO: 3), CD3-ζ (SEQ ID NO: 40), and EGFP, respectively (See FIGS. 12 and 13).
Primary T cells were obtained from the peripheral blood of volunteers. The magnetic beads negative selection was performed using Pan-T kit from Miltenyi Biotec, Inc. to collect T cells from the peripheral blood. On the second day after primary T cell isolation, the collected T cells were infected with lentivirus containing A, B, C, and D CARs, respectively (i.e., Lenti-CARs-IRES-EGFP) to prepare CAR T cells.
On the 14th day after infection, 15,000 CAR T cells of each group were collected, and cultured with 1000 ng/ml CD 19 antigen (i.e., recombinant human CD19 protein. After 15 days of stimulation, the concentration of CD19 was changed to 400 ng/ml. After 20 days of stimulation, the concentration of CD19 was changed to 200 ng/ml and maintained until about 130 days.
The expression of CARs and cell morphology were observed using flow cytometry on day-2, day 15 (FIGS. 14-17), day 17 (FIG. 20), day 65 and day 130 at the beginning of the stimulus. […]

[6] = Survival and growth of various CAR T cells in vitro (FIG. 43); type: cell-based, human; details: medium containing CD19 ECD vs no CD19 ECD
Excerpt: In Group 1 (hTert CD19 CAR), the primary T cells obtained from a healthy donor were transduced with a nucleic acid sequence encoding a CD19 CAR and a nucleic acid sequence encoding hTERT. In Group 2 (CD19 CAR), the primary T cells were transduced with the nucleic acid sequence encoding a CD19 CAR. […] CAR T cells are not comprising the nucleic acid sequence encoding hTERT begun to die after about 20 days after cells were transduced with the nucleic acid sequence encoding CAR.

[7] = test system: anti-CD19 CAR proliferable T cells; test: Culture of anti-CD19 CAR proliferable T cells with CD19 ECD; type: cell-based, human; details: CD19 ECD added to media (1 mg/250,000 CAR T cells)
Excerpt: The primary T cells obtained from a healthy donor were transduced with lentiviral vectors encoding a CD19 CAR (SEQ ID NO: 21) and lentiviral vectors including sequence 1 or 6 as illustrated in FIG. 1 (ef1a-TK-IRES-rtTA-TRE-hTERT: SEQ ID NOs: 1, 2, 3, 4, 5, and 6 in the 5′ to 3′ order or ef1a-rtTA-TRE-hTERT: SEQ ID Nos: 1, 4, 5, and 6 in the 5′ to 3′ order) to obtain transduced T cells including immortalized T cells expressing anti-CD19 CAR (thereafter “anti-CD19 CAR proliferable T cells”) on day one. The anti-CD19 CAR proliferable T cells were divided into various groups and cultured in different media: in the presence of various concentrations of doxycycline (Dox), CD19 extracellular domain (ECD), and/or Ganciclovir (GCV)). In some groups, CD19 ECD (SEQ ID NO: 22) was added to media (1 mg/250,000 CAR T cells), and percentages of cells expressing CD19 CAR increased.

Nc1nc(O)c2ncn(COC(CO)CO)c2n1 [GCV, Ganciclovir]
growth of DTT cells (transduced T cells) [1]: grew poorly
growth of NT (non-transduced T cells) [1]: continued to grow

TSHR ECD: soluble TSHR, extracellular domain of TSHR, SEQ ID: 34
ratio (P1) of CAR+ cells and the CAR T-TSHR cells ([2]; 500 ng/ml soluble TSHR ECD): significantly increased
cell debris ([2]; as the proportion of added antigen (TSHR-ECD) increased): decreased
MFI value (CAR fluorescence) ([2]; under 500 ng antigen stimulation): increased
SSC-A dispersible FSC low population ([2]; with increasing concentrations of TSHR ECD (10, 125, 500 ng/ml)): decreased

B1: CD19 ECD: soluble CD19, extracellular domain (ECD) of CD19, SEQ ID: 41 / SEQ ID NO: 22; recombinant human CD19 protein (protein)
chain: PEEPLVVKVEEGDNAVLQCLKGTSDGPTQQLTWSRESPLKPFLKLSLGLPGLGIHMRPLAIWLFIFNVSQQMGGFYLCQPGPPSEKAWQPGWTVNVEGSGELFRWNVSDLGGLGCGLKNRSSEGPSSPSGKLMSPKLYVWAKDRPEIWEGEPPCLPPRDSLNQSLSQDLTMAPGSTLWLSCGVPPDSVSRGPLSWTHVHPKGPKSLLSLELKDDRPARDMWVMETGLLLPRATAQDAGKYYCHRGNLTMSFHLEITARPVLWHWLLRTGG
cells showing the phenotype of memory cells (CD62L hi) ([3]; CAR T19 cells of Group 2 (cultured with CD19), day 30): entire or majority cells
cell expansion during the early stage ([3]; CD19 ECD added to media vs culturing without CD19 ECD, about day 3 to day 10, non-transduced T cells and CD19 CAR T cells): no apparent increases
ratio of CAR T19 cells and T cells (flow cytometry) ([3]; Group 2 (soluble CD19) vs Group 1): higher
copy numbers of CAR T19 cells (qPCR) ([3]; Group 2 (soluble CD19) vs Group 1 (no CD19)): higher
ratio of CAR T19 cells and T cells ([3]; Group 2, day 30 after the starting point): continued to rise
numbers of CAR+ cells ([3]; Group 4 (CD19 removed after over 15 days) vs Group 3 (continued soluble CD19), Day 27): relatively lower
cell expansion rates of CD19 CAR T cells after the early stage ([3]; vs cells cultured without the CD19 ECD, after about day 10): increased at a higher rate
IFN-gamma released [4]: significantly higher
percentage of CD4 cells ([5]; CD19-stimulated cells vs parallel untreated): increased
proportion of CAR+EGFP+ cells ([5]; after CD19 stimulation): increase
cell growth rates of hTERT CAR T cells [6]: higher cell growth rates
percentages of cells expressing CD19 CAR [7]: increased
